To fix the notation:
T1: human FcγRIIb extracellular domain (human, UniProt P31994 43-217)
T1 construct: also called FcγIIB; not shown: His tag at the C terminus
T1 sequence: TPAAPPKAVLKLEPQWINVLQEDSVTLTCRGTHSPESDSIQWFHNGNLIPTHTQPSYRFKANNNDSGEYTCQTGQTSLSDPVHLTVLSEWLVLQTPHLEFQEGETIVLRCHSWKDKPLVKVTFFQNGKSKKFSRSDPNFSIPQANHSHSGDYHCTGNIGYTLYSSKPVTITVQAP

T2: human FcγRIIa type R extracellular domain (human, UniProt P12318 34-217)
T2 construct: also called FcγRIIaR; FcγRIIa(R); not shown: His tag at the C terminus
T2 chain: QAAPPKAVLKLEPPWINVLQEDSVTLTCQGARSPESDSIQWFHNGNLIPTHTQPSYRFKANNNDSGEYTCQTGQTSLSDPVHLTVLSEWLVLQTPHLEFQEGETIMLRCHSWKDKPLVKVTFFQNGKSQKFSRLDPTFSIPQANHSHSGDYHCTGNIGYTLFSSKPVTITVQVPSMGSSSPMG

T3: human FcγRIIb extracellular domain with C-terminal His tag (human, UniProt P31994 43-217)
T3 construct: extracellular domain; not shown: His tag at the C terminus
T3 sequence (looked up): T1 sequence

T4: human FcγRIIa type R (R131) extracellular domain with C-terminal His tag (human, UniProt P12318 34-217)
T4 construct: extracellular domain; also called FcγRIIaR; not shown: His tag at the C terminus
T4 sequence (looked up): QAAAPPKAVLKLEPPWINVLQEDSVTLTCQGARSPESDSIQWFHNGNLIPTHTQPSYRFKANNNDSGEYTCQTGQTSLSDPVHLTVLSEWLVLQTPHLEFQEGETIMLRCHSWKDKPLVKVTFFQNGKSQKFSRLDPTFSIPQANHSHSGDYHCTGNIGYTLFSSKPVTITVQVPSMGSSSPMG

T5: human FcγRIIb extracellular domain with C-terminal His tag (human, UniProt P31994 43-217)
T5 construct: extracellular domain; not shown: His tag at the C terminus
T5 sequence (looked up): T1 sequence

T6: human FcγRIIa type R (allotype R131) extracellular domain with C-terminal His tag (human, UniProt P12318 34-217)
T6 construct: extracellular domain; also called FcγRIIaR; FcγRIIa R type; not shown: His tag at the C terminus
T6 sequence (looked up): T4 sequence (looked up)

T7: human FcγRIIa type H (allotype H131) extracellular domain with C-terminal His tag (human, UniProt P12318 34-217)
T7 construct: extracellular domain; also called FcγRIIaH; FcγRIIa H type; not shown: His tag at the C terminus
T7 sequence (looked up): T4 sequence (looked up) with R134H

T8: human FcγRIIa type H extracellular domain with C-terminal His tag (human, UniProt P12318 34-217)
T8 construct: extracellular domain; also called FcγRIIaH; FcgRIIaH
T8 sequence (looked up): T4 sequence (looked up) with R134H

T9: human FcγRIIa type H (H131) extracellular domain with C-terminal His tag (human, UniProt P12318 34-217)
T9 construct: extracellular domain; also called FcγRIIaH; not shown: His tag at the C terminus
T9 sequence (looked up): T4 sequence (looked up) with R134H

B1: IL6R-BP561/IL6R-L (antibody, human IgG1, kappa)
heavy: QVQLQESGPGLVKPSETLSLTCAVSGHSISHDHAWSWVRQPPGEGLEWIGFISYSGITNYNPSLQGRVTISRDNSKNTLYLQMNSLRAEDTAVYYCARSLARTTAMDYWGEGTLVTVSSASTKGPSVFPLAPSSKSTSGGTAALGCLVKDYFPEPVTVSWNSGALTSGVHTFPAVLQSSGLYSLSSVVTVPSSSLGTQTYICNVNHKPSNTKVDKKVEPKSCDKTHTCPPCPAPDLLGDDSVFLFPPKPKDTLMISRTPEVTCVVVDVSDEDGDVKFNWYVDGVEVHNAKTKPREEQDNSTYRVVSVLTVLHQDWLNGKEYKCKVSNKALPRPIEKTISKAKGQPREPQVYTLPPSRDELTKNQVSLTCLVKGFYPSDIAVEWESNGQPENNYKTTPPVLDSDGSFFLYSKLTVDKSRWQQGNVFSCSVMHEALHNHYTQESLSLSP
light: not shown
notes: copies: 2 + 2
B2: IL6R-BP543/IL6R-L (antibody, human IgG1, kappa)
heavy: B1 heavy with D270Q, D274E
light: not shown
notes: H268Q introduced into IL6R-BP230 (takes the place of H268D); copies: 2 + 2
B3: IL6R-BP548/IL6R-L (antibody, human IgG1, kappa)
heavy: B1 heavy with D274E, Q421E
light: not shown
notes: Q419E introduced into IL6R-BP230; copies: 2 + 2
B4: IL6R-BP546/IL6R-L (antibody, human IgG1, kappa)
heavy: B1 heavy with D274E, L360M
light: not shown
notes: L358M introduced into IL6R-BP230; copies: 2 + 2
B5: IL6R-BP541/IL6R-L (antibody, human IgG1, kappa)
heavy: B1 heavy with D274E, K276Q
light: not shown
notes: K274Q introduced into IL6R-BP230; copies: 2 + 2
B6: IL6R-BP544/IL6R-L (antibody, human IgG1, kappa)
heavy: B1 heavy with D274E, R357Q
light: not shown
notes: R355Q introduced into IL6R-BP230; copies: 2 + 2
B7: IL6R-BP233/IL6R-L (antibody, human IgG1, kappa)
heavy: B1 heavy with D235E, L236Y, D270H, D274E, D298Y, R332K
light: not shown
notes: copies: 2 + 2
B8: IL6R-BP249/IL6R-L (antibody, human IgG1, kappa)
heavy: B1 heavy with L236Y, D274E
light: not shown
notes: copies: 2 + 2
B9: IL6R-BP220/IL6R-L (antibody, human IgG1, kappa)
heavy: B1 heavy with D274E, R332K
light: not shown
notes: copies: 2 + 2
B10: IL6R-BP246/IL6R-L (antibody, human IgG1, kappa)
heavy: B1 heavy with S269Q, D274E, K328A
light: not shown
notes: copies: 2 + 2
B11: IL6R-BP545/IL6R-L (antibody, human IgG1, kappa)
heavy: B1 heavy with D274E, D358E
light: not shown
notes: D356E introduced into IL6R-BP230; copies: 2 + 2
B12: IL6R-BP209/IL6R-L (antibody, human IgG1, kappa)
heavy: B1 heavy with D235E, D274E, D298Y, K328A
light: not shown
notes: copies: 2 + 2
B13: IL6R-BP195/IL6R-L (antibody, human IgG1, kappa)
heavy: B1 heavy with L236Y, D274E, K328A, R332K
light: not shown
notes: copies: 2 + 2
B14: IL6R-BP208/IL6R-L (antibody, human IgG1, kappa)
heavy: B1 heavy with D274E, D298Y
light: not shown
notes: copies: 2 + 2
B15: IL6R-BP184/IL6R-L (antibody, human IgG1, kappa)
heavy: B1 heavy with D239G, D270H, D274E, D298Y, R332K
light: not shown
notes: copies: 2 + 2
B16: IL6R-BP202/IL6R-L (antibody, human IgG1, kappa)
heavy: B1 heavy with D235E, D270H, D274E, D298Y, K328A
light: not shown
notes: copies: 2 + 2
B17: IL6R-BP089/IL6R-L (antibody, human IgG1, kappa)
heavy: B1 heavy with D235E, L236Y, D239G, D270H, G273P, D274E, D298Y, K328A, R332K
light: not shown
notes: EU numbering; alterations on IL6R-B3; copies: 2 + 2
B18: IL6R-BP176/IL6R-L (antibody, human IgG1, kappa)
heavy: B1 heavy with D239G, D270H, G273P, D274E, D298Y, K328D, R332K
light: not shown
notes: as for B17
B19: IL6R-BP129/IL6R-L (antibody, human IgG1, kappa)
heavy: B1 heavy with D239G, D270H, G273P, D274E, R332K
light: not shown
notes: as for B17
B20: IL6R-BP451/IL6R-L (antibody, human IgG1, kappa)
heavy: B1 heavy with S269A, D270E, D274E, D298Y, P398G
light: not shown
notes: P396G introduced into IL6R-BP423; copies: 2 + 2
B21: IL6R-BP423/IL6R-L (antibody, human IgG1, kappa)
heavy: B1 heavy with S269A, D270E, D274E, D298Y
light: not shown
notes: alterations counted against IL6R-B3; copies: 2 + 2

Numbering of substitutions follows the chain as printed. Names and notes keep the numbering of the source.

One test has as its target T1, human FcγRIIb extracellular domain. Nature of the test: SPR (Biacore), antibody captured on chip, FcγR extracellular domain as analyte, 25 C.
Molecule B1 gave a Kd of 18 nM.

The next test deals with T10, human FcγRIa extracellular domain (human, UniProt P12314 16-292).
T10 construct: also called CD64; not shown: His tag at the C terminus
T10 sequence (P12314 16-292): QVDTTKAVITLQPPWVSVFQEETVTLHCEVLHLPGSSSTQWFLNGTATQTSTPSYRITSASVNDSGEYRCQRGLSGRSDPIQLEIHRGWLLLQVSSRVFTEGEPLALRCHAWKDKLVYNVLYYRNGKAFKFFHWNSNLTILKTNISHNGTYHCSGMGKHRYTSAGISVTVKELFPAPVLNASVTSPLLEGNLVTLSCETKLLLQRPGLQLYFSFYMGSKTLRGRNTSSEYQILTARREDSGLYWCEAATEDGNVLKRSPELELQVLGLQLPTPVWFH
Described as above.
B1: the Kd was found to be 9.4 nM.

The target of the next test is T2, human FcγRIIa type R extracellular …. The test is described as above.
As to B1, binding was characterised by a dissociation constant (Kd) of 510 nM.

In a further test the target is T3, human FcγRIIb extracellular domain with …. Nature of the test: SPR (Biacore); KD of IL6R-B3/IL6R-L divided by KD of this antibody.
For B2, the “KD(IIb) of parent polypeptide/KD(IIb) of altered polypeptide” value (from here on “KD(IIb) … of altered polypeptide”) was determined as 152.
With B3, the “KD(IIb) … of altered polypeptide” value stood at 162.
As to B4, the “KD(IIb) … of altered polypeptide” value came to 205.
Same read-out and setting: the result for B5 reads 190; that for B6, 184.

A further test deals with T4, human FcγRIIa type R (R131) …. The description is as above.
On to B2, for which the “KD(IIaR) of parent polypeptide/KD(IIaR) of altered polypeptide” value (“KD(IIaR) … of altered polypeptide” for short) was 1.9.
Regarding B3, the “KD(IIaR) … of altered polypeptide” value came to 2.2.
On the same count and under the same terms, the result for B4 reads 2.2.
On the same count and under the same terms, the result for B5 reads 2.4.
On to B6, for which the “KD(IIaR) … of altered polypeptide” value was determined as 2.2.

A further test deals with T11, human FcγRIa extracellular domain with C-terminal His tag (human, UniProt P12314 16-292).
T11 construct: not shown: His tag at the C terminus
Nature of the test: SPR (Biacore), antibody captured, FcγR analyte.
T11 sequence (P12314 16-292): as above
With B7, the Kd is 70 nM.
Consider B8, for which the Kd was found to be 7 nM.
Still for that read-out and setting: the result for B9 reads 20 nM.
Same read-out and setting: the result for B10 reads 8 nM.

The target in a further test is T3, human FcγRIIb extracellular domain with …. Nature of the test: SPR (Biacore), antibody captured, FcγR analyte.
B2 registered a Kd of 20 nM.
Turning to B3, the Kd came to 19 nM.
Still for that read-out and setting: the result for B11 reads 17 nM; that for B4, 15 nM.
The same measure, in the same setting: the result for B5 reads 16 nM; that for B6, 17 nM.

A further test deals with T12, human FcγRIa extracellular domain with C-terminal His tag (human, UniProt P12314 16-292).
T12 construct: not shown: His tag at the C terminus
Nature of the test: SPR (Biacore), antibody captured, FcγR analyte.
T12 sequence (P12314 16-292): as above
With B2, the dissociation constant (Kd) is 23 nM.
On the same count and under the same terms, the result for B3 reads 12 nM; that for B4, 9 nM.
B5 had a Kd of 11 nM.
Still for that read-out and setting: the result for B6 reads 9.8 nM.

Another test has as its target T4, human FcγRIIa type R (R131) …. The experiment in a line: SPR (Biacore), antibody captured, FcγR analyte.
For the molecule B2, the Kd stood at 560 nM.
The same measure, in the same setting: the result for B3 reads 500 nM; that for B11, 570 nM; that for B4, 500 nM.
B5: binding was put at a Kd of 450 nM.
Still for that read-out and setting: the result for B6 reads 480 nM.

Another test concerns the target T5, human FcγRIIb extracellular domain with …. The experiment in a line: SPR (Biacore), antibody captured, FcγR analyte.
With B12, the Kd was found to be 51 nM.
Regarding B13, the affinity, expressed as Kd, was 50 nM.

The next test deals with T6, human FcγRIIa type R (allotype R131) …. Nature of the test: SPR (Biacore), antibody captured, FcγR analyte.
Molecule B14 had a Kd of 850 nM.
B15 registered a Kd of 2300 nM.
As to B13, the affinity, expressed as Kd, was 910 nM.

For the next test, the target named is T13, human FcγRIIIa type V (allotype V158) extracellular domain with C-terminal His tag (human, UniProt P08637 17-208).
T13 construct: extracellular domain; also called FcγRIIIaV; FcγRIIIa V type; not shown: His tag at the C terminus
T13 sequence (P08637 17-208 F176V): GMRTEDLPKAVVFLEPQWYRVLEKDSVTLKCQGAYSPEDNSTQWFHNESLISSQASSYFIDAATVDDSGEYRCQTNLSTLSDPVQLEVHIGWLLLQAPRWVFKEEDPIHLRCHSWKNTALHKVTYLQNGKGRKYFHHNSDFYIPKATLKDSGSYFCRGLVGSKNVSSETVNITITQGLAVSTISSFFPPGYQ
Nature of the test: SPR (Biacore), antibody captured, FcγR analyte.
B12 came in with a Kd of 41000 nM.
Still for that read-out and setting: the result for B14 reads 53000 nM; that for B15, 66000 nM; that for B13, 31000 nM.

For another test, the target named is T7, human FcγRIIa type H (allotype H131) …. The experiment in a line: SPR (Biacore), antibody captured, FcγR analyte.
For B12, the Kd is 10000 nM.
Same read-out and setting: the result for B14 reads 8300 nM.
On the same count and under the same terms, the result for B16 reads 9200 nM.
The same measure, in the same setting: the result for B15 reads 30000 nM.
B13 showed a Kd of 10000 nM.

A further test has as its target T11, human FcγRIa extracellular domain with …. Nature of the test: SPR (Biacore), antibody captured, FcγR analyte. The source holds these as a separate data set.
With B12, the affinity, expressed as Kd, was 39 nM.
Take B16: the Kd was determined as 95 nM.

The target of a further test is T8, human FcγRIIa type H extracellular …. The experiment in a line: SPR (Biacore).
Regarding B17, binding was put at a Kd of 20000 nM.
On the same count and under the same terms, the result for B18 reads 30000 nM; that for B19, 40000 nM.

For a further test, the target named is T3, human FcγRIIb extracellular domain with …. The experiment in a line: SPR (Biacore); KD for FcγRIIaR divided by KD for FcγRIIb.
In the case of B2, the “KD(IIaR)/KD(IIb)” value was found to be 27.3.
Take B3: the “KD(IIaR)/KD(IIb)” value turned out to be 26.2.
Still for that read-out and setting: the result for B4 reads 32.8.
Same read-out and setting: the result for B5 reads 27.8; that for B6, 28.8.

The next test addresses T9, human FcγRIIa type H (H131) …. Nature of the test: SPR (Biacore), antibody captured, FcγR analyte.
As to B20, the affinity, expressed as Kd, was 2000 nM.
The same measure, in the same setting: the result for B21 reads 2000 nM.
